Laboratory results published in US20050282739A1.
Blank lines part the entries; values can stand above or below the binder they belong to. Square brackets hold non-standard residues; d marks the D form. Ends that are not written are not given here. Nle = CCCC[C@H](N)C(=O)O

Legend:
[1] = target: bombesin receptor of rat brain membranes (rat); assay: 125I-Bombesin competition, rat brain membranes
[2] = target: human melanocortin-4 receptor (hMC4-R) (human) (UniProt P32245); assay: 125I-NDP-α-MSH competition, hMC4-R membranes
human melanocortin-4 receptor (hMC4-R) (human), sequence (P32245 whole entry): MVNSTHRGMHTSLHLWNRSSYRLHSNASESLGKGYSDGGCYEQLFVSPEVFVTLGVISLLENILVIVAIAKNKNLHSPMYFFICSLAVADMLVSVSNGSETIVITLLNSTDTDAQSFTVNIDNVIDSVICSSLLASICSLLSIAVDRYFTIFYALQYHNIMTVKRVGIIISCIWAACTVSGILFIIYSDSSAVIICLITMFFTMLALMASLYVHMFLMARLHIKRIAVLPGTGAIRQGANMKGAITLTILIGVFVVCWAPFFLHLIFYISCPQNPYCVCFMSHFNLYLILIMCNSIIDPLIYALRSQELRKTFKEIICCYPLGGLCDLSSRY

[3] = target: melanocortin-1 receptor (MC1-R) of B-16 mouse melanoma cells (mouse) (UniProt Q01727); assay: 125I-NDP-α-MSH competition, B-16 membranes
melanocortin-1 receptor (MC1-R) of B-16 mouse melanoma cells (mouse), sequence (Q01727 whole entry): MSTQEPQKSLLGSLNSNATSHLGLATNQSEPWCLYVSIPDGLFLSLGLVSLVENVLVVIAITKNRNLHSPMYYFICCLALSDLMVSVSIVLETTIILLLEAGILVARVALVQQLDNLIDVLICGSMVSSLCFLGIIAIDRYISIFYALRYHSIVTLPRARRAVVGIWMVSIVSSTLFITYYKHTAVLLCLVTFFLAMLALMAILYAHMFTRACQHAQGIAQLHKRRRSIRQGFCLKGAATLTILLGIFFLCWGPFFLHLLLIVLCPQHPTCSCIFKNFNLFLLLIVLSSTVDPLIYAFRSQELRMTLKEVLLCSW

- % Inhibition [1]: 14%
B1: metallopeptide 12-3 (peptide)
peptide: [dF]QWVCVHLL-NH2
modifications: bridge (positions not given here) via ReOCl3(PPh3)2; also: oxorhenium(V) N3S1 tetradentate complex at Cys 5

- % Inhibition [1]: 25%
Binder: QWAVCHLL-NH2 (also: bridge at 5 via oxorhenium(V) N3S1 chelate, other end not in the chain) [metallopeptide 11-4]

- % Inhibition [1]: -81%
B2: metallopeptide 11-3 (peptide)
peptide: [dF]QWAVC-NH2
modifications: bridge (positions not given here) via ReOCl3(PPh3)2; also: oxorhenium(V) N3S1 tetradentate complex at Cys 6

- % Inhibition [1]: -1%
Binder: WAVCH-NH2 (also: bridge at 4 via oxorhenium(V) N3S1 chelate, other end not in the chain) [metallopeptide 11-11]

- % Inhibition at 1 µM [2]: 2%
B3: metallopeptide 4-10 (peptide)
peptide: YVC[Nle]GHFRWDRF-NH2
modifications: bridge (positions not given here); not fully specified (bridges); printed as Tyr-Val-Cys-Nle-Gly-His-Phe-Arg-Trp-Asp-Arg-Phe-NH2.; also: oxorhenium(V) N3S1 complex

- % Inhibition [1]: 13%
Binder: WAVCHL-NH2 (also: bridge at 4 via oxorhenium(V) N3S1 chelate, other end not in the chain) [metallopeptide 11-8]

- % Inhibition [1]: 5%
B4: metallopeptide 12-4 (peptide)
peptide: [dF]QWVCHLL-NH2
modifications: bridge (positions not given here) via ReOCl3(PPh3)2; also: oxorhenium(V) N3S1 tetradentate complex at Cys 5

- % Inhibition [1]: 18%
Binder: WAVCHLL-NH2 (also: bridge at 4 via oxorhenium(V) N3S1 chelate, other end not in the chain) [metallopeptide 11-5]

- % Inhibition [1]: 8%
Binder: WAVC-NH2 (also: bridge at 4 via oxorhenium(V) N3S1 chelate, other end not in the chain) [metallopeptide 11-14]

- % Inhibition [1]: 5%
Binder: QWAVCHL-NH2 (also: bridge at 5 via oxorhenium(V) N3S1 chelate, other end not in the chain) [metallopeptide 11-7]

- % Inhibition [1]: 6%
Binder: AVCHLL-NH2 (also: bridge at 3 via oxorhenium(V) N3S1 chelate, other end not in the chain) [metallopeptide 11-6]

- % Inhibition [1]: 6%
B5: metallopeptide 10-5 (peptide)
peptide: [dF]Q[dW]AVCHLL-NH2
modifications: bridge (positions not given here) via ReOCl3(PPh3)2; also: oxorhenium(V) N3S1 tetradentate complex at Cys 6

- % Inhibition [1]: 7%
B6: metallopeptide 10-3 (peptide)
peptide: [dF]QWA[dV]CHLL-NH2
modifications: bridge (positions not given here) via ReOCl3(PPh3)2; also: oxorhenium(V) N3S1 tetradentate complex at Cys 6

- % Inhibition [1]: -50%
Binder: QWAVC-NH2 (also: bridge at 5 via oxorhenium(V) N3S1 chelate, other end not in the chain) [metallopeptide 11-13]

- % Inhibition at 1 µM [3]: -8%
B7: metallopeptide 4-6 (peptide)
peptide: YV[Nle]GHFCRWDRF-NH2
modifications: also: oxorhenium(V) N3S1 chelate: C7 SG + backbone N of H5, F6, C7, bridge at 7 via Re(V)=O, other end not in the chain

- % Inhibition [1]: 5%
Binder: AVCH-NH2 (also: bridge at 3 via oxorhenium(V) N3S1 chelate, other end not in the chain) [metallopeptide 11-12]

- % Inhibition [1]: 3%
B8: metallopeptide 12-2 (peptide)
peptide: [dF]QWACVHLL-NH2
modifications: bridge (positions not given here) via ReOCl3(PPh3)2; also: oxorhenium(V) N3S1 tetradentate complex at Cys 5

- % Inhibition [1]: 7%
Binder: AVCHL-NH2 (also: bridge at 3 via oxorhenium(V) N3S1 chelate, other end not in the chain) [metallopeptide 11-9]

- % Inhibition [1]: 98%
B9: metallopeptide 11-1 (peptide)
peptide: [dF]QWAVCHL-NH2
modifications: bridge (positions not given here) via ReOCl3(PPh3)2; also: oxorhenium(V) N3S1 tetradentate complex at Cys 6

- % Inhibition [1]: 25%
B10: metallopeptide 11-2 (peptide)
peptide: [dF]QWAVCH-NH2
modifications: bridge (positions not given here) via ReOCl3(PPh3)2; also: oxorhenium(V) N3S1 tetradentate complex at Cys 6

- % Inhibition at 1 µM [2]: -1%
B11: metallopeptide 4-8 (peptide)
peptide: YV[Nle]GCHFRWDRF-NH2
modifications: also: oxorhenium(V) N3S1 chelate: C5 SG + backbone N of X3, G4, C5, bridge at 5 via Re(V)=O, other end not in the chain

- % Inhibition [1]: 10%
B12: metallopeptide 12-6 (peptide)
peptide: [dF]QWCVHLL-NH2
modifications: bridge (positions not given here) via ReOCl3(PPh3)2; also: oxorhenium(V) N3S1 tetradentate complex at Cys 4

- % Inhibition at 1 µM [2]: 7%
Binder: Ac-SYS[Nle]CEHFRWGKPV-NH2 (also: oxorhenium(V) N3S1 chelate at Cys5) [metallopeptide 1-10]

- % Inhibition at 1 µM [2]: 3%
Binder: Ac-SYS[Nle]ECHFRWGKPV-NH2 (also: oxorhenium(V) N3S1 chelate at Cys6) [metallopeptide 1-9]

- % Inhibition [1]: 2%
B13: metallopeptide 12-1 (peptide)
peptide: [dF]QWVCGHLL-NH2
modifications: bridge (positions not given here) via ReOCl3(PPh3)2; also: oxorhenium(V) N3S1 tetradentate complex at Cys 5

- % Inhibition [1]: 2%
B14: metallopeptide 10-4 (peptide)
peptide: [dF]QW[dA]VCHLL-NH2
modifications: bridge (positions not given here) via ReOCl3(PPh3)2; also: oxorhenium(V) N3S1 tetradentate complex at Cys 6
